Assay results reported in CN114316057A (SHENZHEN PEOPLE HOSPITAL, dated 2022).

Tests used:
[1] = target: T1, TOM20-Human 胞质结构域蛋白(25-145) (human, UniProt Q15388 25-145); test: phage clone ELISA, crude phage nanobody extract on coated TOM20 against BSA control
T1 construct: range 25-145; A purification tag (Ni column) is implied but not described; also called TOM20胞质结构域
T1 sequence (looked up): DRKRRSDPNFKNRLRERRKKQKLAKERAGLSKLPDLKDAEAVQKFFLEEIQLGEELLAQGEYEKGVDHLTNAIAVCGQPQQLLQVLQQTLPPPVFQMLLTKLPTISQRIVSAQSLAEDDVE

[2] = target: T1, TOM20-Human 胞质结构域蛋白(25-145); test: SPR (Biacore), antigen immobilised on chip, nanobody as analyte
TOM20-Mouse 胞质结构域 = target: T2, TOM20-Mouse 胞质结构域 (mouse, UniProt Q9DCC8 25-145); test: as above
T2 construct: domain: 胞质结构域; also called TOM20(鼠)胞质结构域
T2 sequence (looked up): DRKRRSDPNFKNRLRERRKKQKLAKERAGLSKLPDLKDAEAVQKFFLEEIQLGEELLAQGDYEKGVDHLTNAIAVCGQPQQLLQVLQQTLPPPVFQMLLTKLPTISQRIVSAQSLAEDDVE

B1: P2B7号纳米抗体 (VHH)
VHH: AVQLVESGGGLVQAGGSLRLSCVASGSTFSNFVMGWYRQAPGKQRVLVATISSGGSTNYADSVKGRFTISRDNTKNTVYLQMNSLKPEDTSVYYCNARRGSVIVPTLAYDYWGQGTQVTVSS
notes: Alpaca naive-library nanobody expressed in E. coli with an HA tag for detection and purified on Ni resin; also called P2B7纳米抗体; TOM20纳米抗体; not shown: fused HA tag and vector-derived His tag (PET-14B or PET28a-sumo)
Question: With B1 as the binder, how does the TOM20/BSA ratio [1] read?
Answer: The TOM20/BSA ratio was about 3 fold.

Question: And the Kd [2]?
Answer: Its Kd is 44.8 nM.

Question: What about the Kd (TOM20-Mouse 胞质结构域) of the same binder?
Answer: The Kd was 413 nM.
